Measurements reported in US20050288223A1.

Target: mouse LSR (lipolysis stimulated receptor) (mouse) (UniProt Q99KG5)
Assay: cell-based or functional assay

Sequence of UniProt Q99KG5 (Q99KG5 36-594): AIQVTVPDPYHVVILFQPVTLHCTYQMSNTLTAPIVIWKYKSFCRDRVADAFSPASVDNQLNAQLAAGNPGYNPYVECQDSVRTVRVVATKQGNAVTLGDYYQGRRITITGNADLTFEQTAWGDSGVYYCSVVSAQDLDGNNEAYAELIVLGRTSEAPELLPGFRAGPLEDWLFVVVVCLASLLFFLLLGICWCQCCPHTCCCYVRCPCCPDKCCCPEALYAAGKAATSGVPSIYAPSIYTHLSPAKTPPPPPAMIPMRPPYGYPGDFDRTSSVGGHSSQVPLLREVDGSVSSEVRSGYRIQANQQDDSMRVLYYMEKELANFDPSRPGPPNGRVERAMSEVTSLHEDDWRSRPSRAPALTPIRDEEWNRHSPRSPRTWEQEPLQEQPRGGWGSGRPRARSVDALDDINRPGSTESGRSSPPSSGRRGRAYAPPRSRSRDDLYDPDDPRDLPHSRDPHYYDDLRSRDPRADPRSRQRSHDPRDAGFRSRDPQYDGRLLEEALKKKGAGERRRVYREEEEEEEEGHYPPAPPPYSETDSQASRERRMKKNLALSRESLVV

cell-associated 125I-leptin in BPRCL mouse liver cells after pre-incubation with increasing AdipoQ (AQ) or globular AdipoQ (AQ-GH): > 30%
Substance: 125I-mouse leptin (from UniProt P41160 22-167) (ligand)
